Laboratory results from the supplement of paper PMC10724198.
± gives the standard deviation of the averaged measurements.

System: Saccharomyces cerevisiae
Assay: protein stability index of tFT-peptide fusion (C-terminal peptide) (PSI (0-1 scale)); higher = more stable (slower turnover)
Details: genetic background: wild type; temperature: 30 C
Description: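 Multiplexed protein stability (MPS) profiling in S. cerevisiae. Random 12-aa peptides (tFT-X12 library) are fused to the C-terminus of a sfGFP-mCherry tandem fluorescent timer, after mCherry and a GGGS linker. Cells are FACS-sorted into 8 mCherry/sfGFP bins and deep-sequenced. The protein stability index (PSI) is the read-weighted bin average, scaled from 0 (unstable) to 1 (stable). Only peptides with >10 reads are reported; cells were grown at 30 °C in SC-His with glucose.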
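Note: PSI is a weighted mean of sequencing reads over stability bins, variants kept only with over 10 reads, mCherry proximal and sfGFP distal, peptide attached via GGGS linker.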

| Sequence | protein stability index |
| --- | --- |
| IGVSDSGMWMGN | 0.694 ± 0.026 |
| IICSKLHSPLVV | 0.509 ± 0.031 |
| IIVGFFGLLLGL | 0.5413 ± 0.0048 |
| IIVWVGAGLWGV | 0.594 ± 0.011 |
| IKCCIGCSSICG | 0.692 ± 0.042 |
| IKFVRLEGLCPL | 0.624 ± 0.019 |
| IKGVEKDKKTQK | 0.747 ± 0.045 |
| IKKDSRQRKRDE | 0.648 ± 0.0084 |
| IKKKKKKENKRR | 0.741 ± 0.014 |
| IKLCRSTVVTGV | 0.592 ± 0.013 |
| IKNKDLISVIII | 0.646 ± 0.042 |
| IKRKQRKRKSEK | 0.86 ± 0.14 |
| IKSKKKKKRNKR | 0.638 ± 0.032 |
| IKSQRGIHLELR | 0.634 ± 0.028 |
| ILCQLRKFKFQN | 0.58 ± 0.013 |
| ILEGGGVLAWFG | 0.7253 ± 0.0017 |
| ILFIKQKYLIKK | 0.6878 ± 0.003 |
| ILGGVSPSAFVI | 0.664 ± 0.022 |
| ILGIESLVAGLL | 0.697 ± 0.062 |
| ILGQLHKHFKTS | 0.546 ± 0.046 |
| ILHGRSGLRELL | 0.688 ± 0.023 |
| ILNKYYEQSMRT | 0.68 ± 0.011 |
| ILPPPPPPPPPF | 0.714 ± 0.039 |
| ILRSVIFMDACV | 0.629 ± 0.018 |
| ILSMSQPHPILS | 0.6175 ± 0.0042 |

| Sequence | protein stability index |
| --- | --- |
| ILTDFELLPVYR | 0.731 ± 0.063 |
| ILVGKIEGIVQE | 0.662 ± 0.025 |
| INCDIIHRRKKG | 0.6462 ± 0.0042 |
| INGYRYHTVNIK | 0.688 ± 0.03 |
| INNTKQSENRKS | 0.701 ± 0.054 |
| INRLKPGRGQKT | 0.658 ± 0.03 |
| IPDATGYGWVRH | 0.691 ± 0.018 |
| IPDSSPIVPHPK | 0.6722 ± 0.0065 |
| IPEEHKLTWIIP | 0.74 ± 0.067 |
| IPFFHVVPRPPP | 0.628 ± 0.024 |
| IPIPLLPASSPP | 0.6877 ± 0.0063 |
| IPKDLSRLELYR | 0.62 ± 0.071 |
| IPPFRLLCRLRL | 0.642 ± 0.022 |
| IPPNPPPPNTIA | 0.557 ± 0.0097 |
| IPPPVLPSPPSP | 0.672 ± 0.1 |
| IPRCSPAGVSSY | 0.696 ± 0.064 |
| IPTVSLLHLPPV | 0.699 ± 0.047 |
| IQKNSGHPMKEA | 0.711 ± 0.023 |
| IQLEFEDMERGK | 0.704 ± 0.11 |
| IQNTERIKIQTK | 0.6791 ± 0.0034 |
| IRCGQFSVVSES | 0.6 ± 0.028 |
| IRHTQVSHIIYA | 0.488 ± 0.029 |
| IRKNWQRIGETA | 0.662 ± 0.026 |
| IRLFAPVVFLPL | 0.644 ± 0.054 |
| IRQTIEGRRLVM | 0.662 ± 0.026 |

| Sequence | protein stability index |
| --- | --- |
| IRRTSENEEETW | 0.673 ± 0.043 |
| IRSLKTSPLMRG | 0.704 ± 0.043 |
| IRVATIQSTMYI | 0.643 ± 0.016 |
| IRWKEIIDKWSY | 0.844 ± 0.038 |
| ISCVLSTVGVGH | 0.663 ± 0.044 |
| ISHAGSVPDRSV | 0.701 ± 0.04 |
| ISIAATPHVSQP | 0.661 ± 0.054 |
| ISLTFNSNSKPM | 0.687 ± 0.053 |
| ISLTHAPKTGFY | 0.695 ± 0.008 |
| ISMASRAGILRG | 0.686 ± 0.049 |
| ISMSDFRLFAIW | 0.6646 ± 0.0047 |
| ISNPAVHNPAGG | 0.641 ± 0.017 |
| ISRLLVLCRDLT | 0.65 ± 0.033 |
| ISVSRLRMKDRN | 0.713 ± 0.22 |
| ISWLLSFLGVVF | 0.601 ± 0.046 |
| ITDCAFIPLTVD | 0.764 ± 0.095 |
| ITGGEKNKEESG | 0.698 ± 0.019 |
| ITIVIKQNVDKE | 0.564 ± 0.016 |
| ITPLVQRPSSLR | 0.689 ± 0.088 |
| ITRSEEAKWLCA | 0.685 ± 0.045 |
| ITSALRYLSAVG | 0.656 ± 0.022 |
| ITSITRFKVDSR | 0.628 ± 0.022 |
| ITTLRSLWVVGL | 0.609 ± 0.085 |
| IVCGMGDKGMHE | 0.698 ± 0.014 |
| IVGKMRRQKTKI | 0.685 ± 0.057 |

| Sequence | protein stability index |
| --- | --- |
| IVNDEHVHTYTR | 0.743 ± 0.013 |
| IVNNVKYKNRNR | 0.715 ± 0.071 |
| IVWCAINYLFRS | 0.63 ± 0.054 |
| IWCSCWPGNWET | 0.823 ± 0.12 |
| IWGLDGKSISID | 0.751 ± 0.061 |
| IWGSILGVEANV | 0.685 ± 0.039 |
| IWLHFKGSRSLP | 0.703 ± 0.16 |
| IYPPALLSSSFL | 0.709 ± 0.093 |
| IYSGIYCVGAKH | 0.666 ± 0.03 |
| KADVSIRYGINN | 0.714 ± 0.074 |
| KARIADRKMWGN | 0.684 ± 0.017 |
| KASSGRASGSMA | 0.673 ± 0.09 |
| KAWGGEGRDAWG | 0.702 ± 0.069 |
| KCCRRPPPAFRS | 0.725 ± 0.034 |
| KCLDSARSSVLP | 0.651 ± 0.043 |
| KCPSLVHSNSTG | 0.71 ± 0.016 |
| KCSLVLTVARSY | 0.609 ± 0.014 |
| KCVQESIIKMMI | 0.763 ± 0.15 |
| KDCHPVSRYVRC | 0.707 ± 0.01 |
| KDFGYKKKNRRY | 0.734 ± 0.032 |
| KDGGRGGLNWCV | 0.745 ± 0.095 |
| KDNMQFLHLYAS | 0.707 ± 0.075 |
| KDRVGYKEIITG | 0.695 ± 0.028 |
| KEERGINNKKGK | 0.691 ± 0.071 |
| KEGARGGEASRR | 0.669 ± 0.031 |

| Sequence | protein stability index |
| --- | --- |
| KEKKENKRKNTT | 0.699 ± 0.051 |
| KEKKLKIIQKGT | 0.578 ± 0.09 |
| KEKKQARVKKKK | 0.723 ± 0.022 |
| KEKRFTQKLIRA | 0.654 ± 0.095 |
| KENEKQRKSHKK | 0.687 ± 0.043 |
| KENIRPSESYKC | 0.668 ± 0.05 |
| KEQESKAISYPV | 0.718 ± 0.035 |
| KEQGEGKEKTDK | 0.682 ± 0.063 |
| KESLKDRTKINI | 0.692 ± 0.033 |
| KEWKSESTVLEV | 0.7468 ± 0.0054 |
| KFASNNMFTRYV | 0.745 ± 0.012 |
| KFMKEITIDGLT | 0.709 ± 0.055 |
| KFSFVVAVHAGL | 0.545 ± 0.024 |
| KFYIIKRLSGVE | 0.64 ± 0.029 |
| KGEGRNRRGVPR | 0.675 ± 0.019 |
| KGLKRNENGTMS | 0.638 ± 0.017 |
| KGQKIIKNKNPK | 0.644 ± 0.038 |
| KGRRQPSSESVM | 0.711 ± 0.014 |
| KGSLVLGSKCCR | 0.681 ± 0.047 |
| KGVGGSTSRGGE | 0.666 ± 0.047 |
| KHKKKRTRDHEE | 0.666 ± 0.012 |
| KHNRISEKHQKS | 0.643 ± 0.0095 |
| KHRSIRPYLKND | 0.72 ± 0.037 |
| KHSMGSFNNILN | 0.6674 ± 0.0032 |
| KIDKNHGILPNY | 0.679 ± 0.035 |

| Sequence | protein stability index |
| --- | --- |
| KIEAHKKYKKHQ | 0.726 ± 0.026 |
| KINAKIYGSEKG | 0.654 ± 0.015 |
| KIRKYTKGQIMQ | 0.687 ± 0.007 |
| KITEKLGSPKTF | 0.654 ± 0.086 |
| KKEKGKKEKEKR | 0.668 ± 0.056 |
| KKEKKIRKKTVT | 0.732 ± 0.028 |
| KKEQIKINIKGK | 0.693 ± 0.03 |
| KKGACTQILQSL | 0.789 ± 0.19 |
| KKGKGKTETIKT | 0.695 ± 0.03 |
| KKGRRERRITNE | 0.695 ± 0.013 |
| KKHNGHNHQNNF | 0.684 ± 0.019 |
| KKIDQAKETSLS | 0.68 ± 0.011 |
| KKIEKENKKEKF | 0.611 ± 0.056 |
| KKIRKGIGNKHI | 0.651 ± 0.017 |
| KKKEKDKKTNKP | 0.684 ± 0.057 |
| KKKEKKKKNKLK | 0.74 ± 0.019 |
| KKKEKKNIHSKT | 0.646 ± 0.029 |
| KKKFNNFIKIIH | 0.631 ± 0.027 |
| KKKGDAKNKKKQ | 0.714 ± 0.067 |
| KKKHKKKKKKKE | 0.676 ± 0.073 |
| KKKKEIKKKKKT | 0.697 ± 0.06 |
